Earlier results on one substance are cited in article PMC2854253.

As a reminder, the Kd is a measure of binding affinity in units of concentration.

The data set has as its target cTnI147-163 (Homo sapiens). Nature of the data set: NMR titration.

On to cNTnC 1-89 (from UniProt P63316), for which the Kd was 154 µM.
